# PMC10144703, “Molecular Mechanism of Sirtuin 1 Inhibition by Human Immunodeficiency Virus 1 Tat Protein” (Life, 2023)
# Where no end group is shown, it is not given here.
# Tests used:
# [1] = target: T1, human mini-Sirt1 (aa 183-505-(GGGS)2-641-665) (Homo sapiens, UniProt Q96EB6); test: FdL assay, mini-Sirt1; format: biochemical; details: FdL-1 at substrate Km, 15% (v/v) DMSO, n = 3
# T1 construct: aa 183-505-(GGGS)2-641-665; made in house; host or cells: E. coli CodonPlus(DE3)
# T1 sequence (Q96EB6 with tags, fused parts or gaps limits assumed): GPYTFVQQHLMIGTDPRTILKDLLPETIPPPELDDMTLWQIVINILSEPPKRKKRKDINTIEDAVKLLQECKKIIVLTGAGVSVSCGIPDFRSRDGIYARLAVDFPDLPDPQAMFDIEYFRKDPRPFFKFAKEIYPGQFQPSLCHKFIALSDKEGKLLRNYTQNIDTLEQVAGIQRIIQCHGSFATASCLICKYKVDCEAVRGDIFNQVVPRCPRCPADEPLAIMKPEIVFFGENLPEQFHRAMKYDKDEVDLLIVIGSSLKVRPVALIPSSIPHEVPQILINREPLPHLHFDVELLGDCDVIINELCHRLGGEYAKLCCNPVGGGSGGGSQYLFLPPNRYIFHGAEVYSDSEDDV
# Excerpt: (§1) A human mini-Sirt1 construct (aa 183-505-(GGGS)2-641-665), as described in [27], was generated in a modified pET-19b with a TEV cleavage site. This construct and human full-length Sirt1 (fl-Sirt1) in pET-15b, Sirt1-(183-664) and Sirt1-(214-664) in pET-15b, mini-Sirt1-∆SBD (aa 214-505-(GGGS)2-641-665) and mini-Sirt1-∆ESA (aa 183–505) in a modified pET-19b with TEV cleavage site, Sirt2-(43-356) in a modified pET-19b with a His6-Sumo tag, Sirt3-(93-399) in a modified pET-32a with Trx-His6 tag and TEV cleavage site, hSirt3-(118-399) in pVFT3S (Sungkyunkwan University, Seoul, Republic of Korea) with His6-Trx tag and TEV cleavage site, Sirt5-(34-302) in pET-151/D-TOPO, and Sirt6-(1-355) in pQE80L.1 were purified as described. Shortly, proteins were expressed at 20 °C (mini-Sirt1 constructs at 16 °C) in E. coli CodonPlus(DE3), cell lysates were cleared by centrifugation, and proteins were purified via affinity chromatography using a nickel NTA column. After digestion with thrombin or TEV protease, proteins were re-run over the nickel NTA column, pooled, and concentrated. The samples were, then, subjected either directly to size exclusion chromatography in 50 mM Tris/HCl, pH 8.0, 150 mM NaCl, 1 mM TCEP, or to an ion exchange chromatography followed by size exclusion chromatography. Purified proteins (yield 1—4 mg/L expression culture) were concentrated to 12–18 mg/mL and shock frozen for storage at −80 °C.
# (§2) For sirtuin deacetylation activity measurements, we used two well-characterized assays, a coupled enzymatic assay, and the so-called FdL assay, respectively.
# Km values for FdL-1 were determined in the presence of 3 mM NAD^+ and Km values for NAD^+ in presence of 0.5 mM FdL-1 peptide. […] Reactions were incubated for 20 min, followed by a 1:1 addition of developer (2 mM NAM and 10 mg/mL trypsin in assay buffer). After incubation for 45 min at room temperature, fluorescence was measured with a FluoDia T70 (Photon Technology International Inc., Birmingham, NJ, USA) with an excitation wavelength of 365 nm and emission wavelength of 465 nm. […]
# Sirt1 = details: FdL assay, wildtype Tat; ref [9]; read-out: IC50, Sirt1 (previously reported); cited from earlier work
# [2] = target: T2, human full-length Sirt1 (fl-Sirt1) (Homo sapiens, UniProt Q96EB6); test: FdL deacetylation assay, fl-Sirt1; format: biochemical; details: FdL assay, 100 µM FdL-1, 500 µM NAD^+, pH 7.8, 37 °C; n = 2; read-out: IC50, fl-Sirt1, truncated Tat-Cys^− constructs
# T2 construct: human full-length Sirt1 (fl-Sirt1) in pET-15b; made in house; host or cells: E. coli CodonPlus(DE3)
# T2 sequence (Q96EB6 1-747): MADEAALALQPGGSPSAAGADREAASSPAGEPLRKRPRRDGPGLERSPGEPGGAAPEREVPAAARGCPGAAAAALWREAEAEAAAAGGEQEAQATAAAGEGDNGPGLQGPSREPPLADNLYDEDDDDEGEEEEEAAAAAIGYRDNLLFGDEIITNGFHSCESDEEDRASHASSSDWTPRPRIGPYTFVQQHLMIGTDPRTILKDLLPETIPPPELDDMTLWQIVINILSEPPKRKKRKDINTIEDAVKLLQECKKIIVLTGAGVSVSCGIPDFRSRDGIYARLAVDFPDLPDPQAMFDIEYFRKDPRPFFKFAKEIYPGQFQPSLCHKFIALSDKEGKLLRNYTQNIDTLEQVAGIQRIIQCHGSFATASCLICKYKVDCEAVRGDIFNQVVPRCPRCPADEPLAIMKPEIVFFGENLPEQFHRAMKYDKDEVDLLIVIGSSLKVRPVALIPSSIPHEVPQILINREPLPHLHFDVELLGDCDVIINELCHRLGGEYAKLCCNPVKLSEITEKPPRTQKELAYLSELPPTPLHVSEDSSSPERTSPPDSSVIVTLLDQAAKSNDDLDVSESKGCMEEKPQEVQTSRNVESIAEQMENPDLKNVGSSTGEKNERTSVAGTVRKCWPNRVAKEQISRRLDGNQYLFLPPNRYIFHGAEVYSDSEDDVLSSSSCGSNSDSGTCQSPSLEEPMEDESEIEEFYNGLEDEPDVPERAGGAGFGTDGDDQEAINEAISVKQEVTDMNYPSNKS
# Excerpt: as §1, with “Purified proteins (yield 1—4 mg/L expression culture) were concentrated to 12–18 mg/mL and shock frozen for storage at −80 °C.” left out
# [3] = target: T2, human full-length Sirt1 (fl-Sirt1); test: Continuous coupled enzymatic sirtuin activity assay, fl-Sirt1; format: biochemical; details: coupled-enzyme assay, n = 2
# Excerpt: A human mini-Sirt1 construct (aa 183-505-(GGGS)2-641-665), as described in [27], was generated in a modified pET-19b with a TEV cleavage site. This construct and human full-length Sirt1 (fl-Sirt1) in pET-15b, Sirt1-(183-664) and Sirt1-(214-664) in pET-15b, mini-Sirt1-∆SBD (aa 214-505-(GGGS)2-641-665) and mini-Sirt1-∆ESA (aa 183–505) in a modified pET-19b with TEV cleavage site, Sirt2-(43-356) in a modified pET-19b with a His6-Sumo tag, Sirt3-(93-399) in a modified pET-32a with Trx-His6 tag and TEV cleavage site, hSirt3-(118-399) in pVFT3S (Sungkyunkwan University, Seoul, Republic of Korea) with His6-Trx tag and TEV cleavage site, Sirt5-(34-302) in pET-151/D-TOPO, and Sirt6-(1-355) in pQE80L.1 were purified as described. […]
# Continuous coupled enzymatic sirtuin activity assays were conducted as described. […] Reactions were monitored for 1 h at room temperature by absorption spectroscopy at 340 nm in a UV/vis plate reader (BioTek). The slope for the linear range (typically 5–25 min) was evaluated after background correction with measurements without NAD^+. Additional control reactions were run by either omitting enzyme or omitting peptide substrate to ensure that the signal measured reflects the NAD+-dependent deacetylation activity of the sirtuin.
# mini-Sirt1 = target: T3, mini-Sirt1 (Homo sapiens, UniProt Q96EB6); test: Deacetylation of ac-Tat-46–54 as substrate by mini-Sirt1; format: biochemical
# T3 construct: aa 183-505-(GGGS)2-641-665; made in house; host or cells: E. coli CodonPlus(DE3)
# T3 sequence (Q96EB6 with tags, fused parts or gaps limits assumed): T1 sequence (Q96EB6 with tags, fused parts or gaps limits assumed)
# Method: as §2
# Continuous coupled enzymatic sirtuin activity assays were conducted as described. […] For assays with Tat peptides, 5% (v/v) DMSO was added to all reactions to enhance peptide solubility. Reactions were monitored for 1 h at room temperature by absorption spectroscopy at 340 nm in a UV/vis plate reader (BioTek). The slope for the linear range (typically 5–25 min) was evaluated after background correction with measurements without NAD^+. Additional control reactions were run by either omitting enzyme or omitting peptide substrate to ensure that the signal measured reflects the NAD+-dependent deacetylation activity of the sirtuin.
# human Sirt3-(118-399) = test: Crystal structure of Sirt3/Tat peptide complexes; format: binding; details: Sirt3/Tat-37–59 at 1.95 Å; Sirt3/ac-Tat-46–54 at 1.65 Å
# Method: For crystallization of the Sirt3 and Tat peptide complexes, 10 mg/mL human Sirt3-(118-399) in 20 mM Tris/HCl, pH 8.0, 150 mM NaCl, 5% (v/v) glycerol, 1 mM TCEP were incubated with 2 mM ac-Tat-46-54 or Tat-37-59 (the latter in 10% (v/v) DMSO) for 60 min at 20 °C. Both complexes were crystallized using the sitting-drop vapor-diffusion method at 20 °C with 100 mM MES, pH 6.0, 30% (w/v) PEG 200, 5% (w/v) PEG 3000 as reservoir solution for Sirt3/ac-Tat-46-54 and 100 mM CHES, pH 9.0, 20% (w/v) PEG 8000 for Sirt3/Tat-37-59. Crystals were cryoprotected with the respective reservoir solution supplemented with 25% (v/v) glycerol and flash-frozen in liquid nitrogen.
# Diffraction data were collected at BESSY II, beamline MX14.1 operated by Helmholtz Zentrum Berlin (Berlin, Germany) at 0.9184 Å wavelength. Indexing, scaling, and merging of the Sirt3/ac-Tat-46-54 complex data were performed with XDSAPP [37]. The Sirt3/Tat-37–59 complex data were indexed and integrated with DIALS [38] and further processed with CCP4 programs Rebatch, Pointless, Aimless, and cTruncate, with 5% of the reflections assigned to Rfree with Uniqueify. The complex structures were phased by molecular replacement with PHASER [40] and using a Sirt3/ac-ACS/carba-NAD (PDB ID 4FVT) and a Sirt3/ADPr complex (PDB ID 4BVB), respectively, as a search model. […]
substance,measurement,setting,value
"Tat-49–60: synthetic non-acetylated Tat fragment, residues 49–60 (RKKRRQRRRPSQ)",inhibition of mini-Sirt1 by synthetic Tat peptides (Figure 2F),[1]; dose-dependent,weaker inhibition
same,"inhibition of mini-Sirt1, titration (Figure 2G)",[1]; titration,neither Tat-31–49 nor Tat-49–60 alone was sufficient for significant inhibition
"wildtype Tat: HIV1 transactivator of transcription protein, wildtype, as previously reported",IC50,Sirt1,3.5 µM
residues 21–63 of Tat-Cys^−: construct also lacking the N-terminal region from aa 1–20 (ASNRAHAKKSAYHSQVAFITKGLGISYGRKKRRQRRRPSQGGQ),IC50,[2],~30 µM
ac-Tat-46–54: Lys50-acetylated Tat-46–54 peptide (SYGRK(Ac)KRRQ),effect on fl-Sirt1 activity upon addition to assay containing p53-peptide,[3]; 100 µM ac-p53 as basal substrate,expected increase of activity
same,onset of inhibition upon addition to assay containing p53-peptide,"[3]; fl-Sirt1, 100 µM ac-p53 as basal substrate",no indications of instant or delayed onset of inhibition
same,Sirt1-dependent deacetylation (as substrate),"mini-Sirt1; Michaelis–Menten kinetics, mini-Sirt1, compared with ac-p53-Lys382, n = 3","efficient Sirt1-dependent deacetylation, even slightly more efficient than for its standard substrate peptide ac-p53-Lys382"
same,inhibitory effects at later time points of the deacetylation assay,"mini-Sirt1; time-course for deacetylation by mini-Sirt1, n = 3",did not observe any inhibitory effects at later time points
same,binding site/mode in Sirt3 crystal structure,human Sirt3-(118-399),"inserted in the substrate binding groove in the typical, β-sheet-like fashion"
SYGRKKRRQ [Tat-46–54],IC50,"[1]; 37 °C, pH 7.8, ± s.d., read-out: IC50 (FdL assay), mini-Sirt1, non-acetylated Tat-46–54",131 ± 88.1 µM
